System: PY79 spores
Format: physicochemical, B. subtilis

Substance: listeriolysin from Listeria monocytogenes: immunogen shown to bind to the spore
- binding of other immunogens to the spore: can bind to the spore in a pH-dependant manner
